Measured values from US20240294593A1 (Genentech, published 2024).

What was measured:
human PD-1-His [1] = molecular target: T1, human PD-1-His (human, UniProt Q15116 25-167, limits assumed); assay: Octet
T1 construct: Antigen of the Octet assays; not shown: His tag

human PD-1-His [2] = molecular target: T1, human PD-1-His; assay: Octet (BLI), AHC biosensors capture the bivalent mAb, dipped into multiple concentrations of PD-1; KDapp per legend
human PD-1-His [3] = molecular target: T1, human PD-1-His; assay: Octet (BLI), AHC capture of the bivalent mAb, PD-1 in solution

T1 sequence (Q15116 25-167 limits assumed): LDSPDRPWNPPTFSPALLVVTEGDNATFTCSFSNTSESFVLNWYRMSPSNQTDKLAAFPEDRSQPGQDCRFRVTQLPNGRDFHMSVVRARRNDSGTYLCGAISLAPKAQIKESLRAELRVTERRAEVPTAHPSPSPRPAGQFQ

B1: H1.93_L1 (antibody, V domains shown)
VH: EVQLVESGGGLVQPGGSLRLSCAASGFTFSSFGMHWVRQAPGKGLEWVSYISSGSSIWYYADSVKGRFTISRDNAKNSLYLQMNSLRAEDTAVYYCARGGRLVWSPDYWGQGTLVTVSS
VL: DIVMTQSPDSLAVSLGERATINCKSSQSLLNSGNQKNYLTWYQQKPGQPPKLLIYWASTRESGVPDRFTGSGSGTDFTLTISSLQAEDVAVYYCQNDYSYPFTFGSGTKLEIKR
notes: also called VH-I62W; Kabat 57
For B1, the Kd (human PD-1-His [1]) was 31 nM, the koff (human PD-1-His [1]) was 0.00528 s⁻¹ and the kon (human PD-1-His [1]) was 170000 M⁻¹ s⁻¹.

B2: H1.199_L1.1 (XENP32815) (antibody, human IgG1, kappa, V domains shown)
VH: EVQLVESGGGLVQPGGSLRLSCAASGFTFSSFGMHWVRQAPGKGLEWVSYISSGSSIIYYADSVKGRFTISRDNAKNSLYLQMNSLRAEDTAVYYCARGGRLIFSSDYWGQGTLVTVSS
VL: DIVMTQSPDSLAVSLGERATINCKSSQSLLHSGNQKNYLTWYQQKPGQPPKLLIYWASTRESGVPDRFTGSGSGTDFTLTISSLQAEDVAVYYCQNDYSYPFTFGSGTKLEIKR
notes: VH substitution V111I/W112F/P114S (Xencor #); V99I/W100F/P100bS (Kabat); also called mAb C[PD1]_H1.199_L1.1_IgG1_PVA_/S267K
B2 was tested, and the Kd (human PD-1-His [2]) was 15.5 nM, the koff (human PD-1-His [3]) was 0.00155 s⁻¹ and the kon (human PD-1-His [3]) was 99700 M⁻¹ s⁻¹.

B3: H1.202_L1.1 (XENP32818) (antibody, human IgG1, kappa, V domains shown)
VH: EVQLVESGGGLVQPGGSLRLSCAASGFTFSSFGMHWVRQAPGKGLEWVSYISSGSSIIYYADSVKGRFTISRDNAKNSLYLQMNSLRAEDTAVYYCARGGRLQFTPDYWGQGTLVTVSS
VL: DIVMTQSPDSLAVSLGERATINCKSSQSLLHSGNQKNYLTWYQQKPGQPPKLLIYWASTRESGVPDRFTGSGSGTDFTLTISSLQAEDVAVYYCQNDYSYPFTFGSGTKLEIKR
notes: VH substitution V111Q/W112F/S113T (Xencor #); V99Q/W100F/S100aT (Kabat); also called mAb C[PD1]_H1.202_L1.1_IgG1_PVA_/S267K
Binder B3 has a Kd (human PD-1-His [2]) of 23 nM, a koff (human PD-1-His [3]) of 0.00239 s⁻¹ and a kon (human PD-1-His [3]) of 104000 M⁻¹ s⁻¹.

B4: H1.95_L1 (antibody, V domains shown)
VH: EVQLVESGGGLVQPGGSLRLSCAASGFTFSSFGMHWVRQAPGKGLEWVSYISSGSSINYYADSVKGRFTISRDNAKNSLYLQMNSLRAEDTAVYYCARGGRLVWSPDYWGQGTLVTVSS
VL: DIVMTQSPDSLAVSLGERATINCKSSQSLLNSGNQKNYLTWYQQKPGQPPKLLIYWASTRESGVPDRFTGSGSGTDFTLTISSLQAEDVAVYYCQNDYSYPFTFGSGTKLEIKR
notes: also called VH-I62N; Kabat 57
For B4, the Kd (human PD-1-His [1]) was 73.4 nM, the koff (human PD-1-His [1]) was 0.0119 s⁻¹ and the kon (human PD-1-His [1]) was 162000 M⁻¹ s⁻¹.

B5: H1.195_L1.1 (XENP32811) (antibody, human IgG1, kappa, V domains shown)
VH: EVQLVESGGGLVQPGGSLRLSCAASGFTFSSFGMHWVRQAPGKGLEWVSYISSGSSIIYYADSVKGRFTISRDNAKNSLYLQMNSLRAEDTAVYYCARGGRQVFSPDYWGQGTLVTVSS
VL: DIVMTQSPDSLAVSLGERATINCKSSQSLLHSGNQKNYLTWYQQKPGQPPKLLIYWASTRESGVPDRFTGSGSGTDFTLTISSLQAEDVAVYYCQNDYSYPFTFGSGTKLEIKR
notes: VH substitution L110Q/W112F (Xencor #); L98Q/W100F (Kabat); also called mAb C[PD1]_H1.195_L1.1_IgG1_PVA_/S267K
Work on B5 yielded a Kd (human PD-1-His [2]) of 41.9 nM, a koff (human PD-1-His [3]) of 0.00436 s⁻¹ and a kon (human PD-1-His [3]) of 104000 M⁻¹ s⁻¹.

B6: H1.94_L1 (antibody, V domains shown)
VH: EVQLVESGGGLVQPGGSLRLSCAASGFTFSSFGMHWVRQAPGKGLEWVSYISSGSSIAYYADSVKGRFTISRDNAKNSLYLQMNSLRAEDTAVYYCARGGRLVWSPDYWGQGTLVTVSS
VL: DIVMTQSPDSLAVSLGERATINCKSSQSLLNSGNQKNYLTWYQQKPGQPPKLLIYWASTRESGVPDRFTGSGSGTDFTLTISSLQAEDVAVYYCQNDYSYPFTFGSGTKLEIKR
notes: also called VH-I62A; Kabat 57
B6 was tested, and the Kd (human PD-1-His [1]) was 80.6 nM, the koff (human PD-1-His [1]) was 0.0161 s⁻¹ and the kon (human PD-1-His [1]) was 200000 M⁻¹ s⁻¹.

B7: H1.196_L1.1 (XENP32812) (antibody, human IgG1, kappa, V domains shown)
VH: EVQLVESGGGLVQPGGSLRLSCAASGFTFSSFGMHWVRQAPGKGLEWVSYISSGSSIIYYADSVKGRFTISRDNAKNSLYLQMNSLRAEDTAVYYCARGGRLFFSPDYWGQGTLVTVSS
VL: DIVMTQSPDSLAVSLGERATINCKSSQSLLHSGNQKNYLTWYQQKPGQPPKLLIYWASTRESGVPDRFTGSGSGTDFTLTISSLQAEDVAVYYCQNDYSYPFTFGSGTKLEIKR
notes: VH substitution V111F/W112F (Xencor #); V99F/W100F (Kabat); also called mAb C[PD1]_H1.196_L1.1_IgG1_PVA_/S267K
B7 gave a Kd (human PD-1-His [2]) of 44.8 nM, a koff (human PD-1-His [3]) of 0.00475 s⁻¹ and a kon (human PD-1-His [3]) of 106000 M⁻¹ s⁻¹.

B8: H1.198_L1.1 (XENP32814) (antibody, human IgG1, kappa, V domains shown)
VH: EVQLVESGGGLVQPGGSLRLSCAASGFTFSSFGMHWVRQAPGKGLEWVSYISSGSSIIYYADSVKGRFTISRDNAKNSLYLQMNSLRAEDTAVYYCARGGRLVFNPDYWGQGTLVTVSS
VL: DIVMTQSPDSLAVSLGERATINCKSSQSLLHSGNQKNYLTWYQQKPGQPPKLLIYWASTRESGVPDRFTGSGSGTDFTLTISSLQAEDVAVYYCQNDYSYPFTFGSGTKLEIKR
notes: VH substitution W112F/S113N (Xencor #); W100F/S100aN (Kabat); also called mAb C[PD1]_H1.198_L1.1_IgG1_PVA_/S267K
B8 was tested, and the Kd (human PD-1-His [2]) was 18.2 nM, the koff (human PD-1-His [3]) was 0.00142 s⁻¹ and the kon (human PD-1-His [3]) was 78000 M⁻¹ s⁻¹.

B9: H1.189_L1.1 (XENP32805) (antibody, human IgG1, kappa, V domains shown)
VH: EVQLVESGGGLVQPGGSLRLSCAASGFTFSSFGMHWVRQAPGKGLEWVSYISSGSSIIYYADSVKGRFTISRDNAKNSLYLQMNSLRAEDTAVYYCARGGRRVFTPDYWGQGTLVTVSS
VL: DIVMTQSPDSLAVSLGERATINCKSSQSLLHSGNQKNYLTWYQQKPGQPPKLLIYWASTRESGVPDRFTGSGSGTDFTLTISSLQAEDVAVYYCQNDYSYPFTFGSGTKLEIKR
notes: VH substitution L110R/W112F/S113T (Xencor #); L98R/W100F/S100aT (Kabat); also called mAb C[PD1]_H1.189_L1.1_IgG1_PVA_/S267K
B9 showed a Kd (human PD-1-His [2]) of 23.7 nM, a koff (human PD-1-His [3]) of 0.00199 s⁻¹ and a kon (human PD-1-His [3]) of 83800 M⁻¹ s⁻¹.
